Reference: paper PMC5207133

How the values were obtained:
[1] = target: Ku70/80 heterodimer (human (endogenous in HeLa)) (UniProt P12956)
[2] = target: XRCC4-DNA ligase IV (X4L4) complex (human) (UniProt Q13426)
Sequence of XRCC4-DNA ligase IV (X4L4) complex (human) (Q13426 whole entry, chain 1 of 2): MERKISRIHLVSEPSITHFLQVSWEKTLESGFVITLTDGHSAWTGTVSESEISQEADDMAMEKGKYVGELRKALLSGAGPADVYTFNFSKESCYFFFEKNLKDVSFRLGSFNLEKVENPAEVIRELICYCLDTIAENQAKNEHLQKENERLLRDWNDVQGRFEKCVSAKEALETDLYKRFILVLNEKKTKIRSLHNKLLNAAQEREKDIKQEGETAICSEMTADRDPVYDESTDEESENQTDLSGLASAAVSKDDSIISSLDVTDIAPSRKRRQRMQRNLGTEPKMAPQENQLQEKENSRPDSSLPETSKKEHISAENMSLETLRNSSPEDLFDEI
Sequence of XRCC4-DNA ligase IV (X4L4) complex (human) (P49917 whole entry, chain 2 of 2, further chain): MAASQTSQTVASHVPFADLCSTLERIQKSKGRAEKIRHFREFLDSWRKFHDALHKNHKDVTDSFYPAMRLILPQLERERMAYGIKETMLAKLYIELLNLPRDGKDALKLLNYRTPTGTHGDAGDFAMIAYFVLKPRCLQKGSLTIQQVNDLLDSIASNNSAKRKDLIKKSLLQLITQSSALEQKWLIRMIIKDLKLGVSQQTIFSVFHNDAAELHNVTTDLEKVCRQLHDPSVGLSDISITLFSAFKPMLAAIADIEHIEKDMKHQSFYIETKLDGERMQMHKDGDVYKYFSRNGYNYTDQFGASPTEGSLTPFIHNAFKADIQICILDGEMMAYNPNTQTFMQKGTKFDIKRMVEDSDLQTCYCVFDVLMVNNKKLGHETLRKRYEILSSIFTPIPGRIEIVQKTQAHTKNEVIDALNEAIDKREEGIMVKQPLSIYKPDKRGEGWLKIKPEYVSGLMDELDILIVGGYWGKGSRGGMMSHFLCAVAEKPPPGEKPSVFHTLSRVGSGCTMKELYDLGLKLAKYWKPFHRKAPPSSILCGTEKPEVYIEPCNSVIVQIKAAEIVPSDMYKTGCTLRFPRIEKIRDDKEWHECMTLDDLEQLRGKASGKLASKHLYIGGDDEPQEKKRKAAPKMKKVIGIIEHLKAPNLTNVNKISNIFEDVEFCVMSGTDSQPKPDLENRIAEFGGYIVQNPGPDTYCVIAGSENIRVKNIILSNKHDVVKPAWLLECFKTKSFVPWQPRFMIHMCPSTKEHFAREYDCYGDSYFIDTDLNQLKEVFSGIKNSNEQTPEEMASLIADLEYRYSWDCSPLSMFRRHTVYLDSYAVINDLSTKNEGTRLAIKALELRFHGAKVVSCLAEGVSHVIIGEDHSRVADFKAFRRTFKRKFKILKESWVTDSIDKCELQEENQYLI

Sequence of aprataxin and polynucleotide kinase/phosphatase-like factor (APLF), GST tag removed (Q8IW19 whole entry): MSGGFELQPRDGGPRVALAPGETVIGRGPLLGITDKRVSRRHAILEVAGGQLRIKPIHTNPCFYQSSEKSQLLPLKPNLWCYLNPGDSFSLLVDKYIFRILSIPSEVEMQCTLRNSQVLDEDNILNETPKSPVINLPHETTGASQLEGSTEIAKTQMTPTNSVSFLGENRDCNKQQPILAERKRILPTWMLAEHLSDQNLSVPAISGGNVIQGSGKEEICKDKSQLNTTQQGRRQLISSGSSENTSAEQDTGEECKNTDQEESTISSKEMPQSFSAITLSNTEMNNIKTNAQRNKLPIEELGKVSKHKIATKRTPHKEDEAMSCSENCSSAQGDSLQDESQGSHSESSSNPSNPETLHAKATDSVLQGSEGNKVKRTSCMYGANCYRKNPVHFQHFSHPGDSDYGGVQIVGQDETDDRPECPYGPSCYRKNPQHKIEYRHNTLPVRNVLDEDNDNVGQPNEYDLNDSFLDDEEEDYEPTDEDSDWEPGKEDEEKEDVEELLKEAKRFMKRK
Sequence of Ku70/80 heterodimer (human (endogenous in HeLa)) (P12956 whole entry, chain 1 of 2): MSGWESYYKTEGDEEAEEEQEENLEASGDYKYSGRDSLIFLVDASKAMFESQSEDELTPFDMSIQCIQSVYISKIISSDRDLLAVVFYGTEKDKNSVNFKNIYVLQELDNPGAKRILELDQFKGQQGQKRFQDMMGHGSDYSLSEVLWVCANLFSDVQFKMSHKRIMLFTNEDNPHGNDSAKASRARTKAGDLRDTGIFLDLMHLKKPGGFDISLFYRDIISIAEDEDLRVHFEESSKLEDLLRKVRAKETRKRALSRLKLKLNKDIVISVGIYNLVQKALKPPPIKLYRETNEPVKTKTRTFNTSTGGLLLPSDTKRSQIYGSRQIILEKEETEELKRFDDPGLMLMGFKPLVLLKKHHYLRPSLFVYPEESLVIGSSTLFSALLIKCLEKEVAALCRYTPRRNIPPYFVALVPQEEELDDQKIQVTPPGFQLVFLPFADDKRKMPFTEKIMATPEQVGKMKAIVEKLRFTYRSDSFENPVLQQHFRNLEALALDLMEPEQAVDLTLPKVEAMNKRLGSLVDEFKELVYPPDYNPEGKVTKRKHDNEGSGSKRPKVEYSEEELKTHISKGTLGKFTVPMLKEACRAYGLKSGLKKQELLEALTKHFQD
Sequence of Ku70/80 heterodimer (human (endogenous in HeLa)) (P13010 whole entry, chain 2 of 2, further chain): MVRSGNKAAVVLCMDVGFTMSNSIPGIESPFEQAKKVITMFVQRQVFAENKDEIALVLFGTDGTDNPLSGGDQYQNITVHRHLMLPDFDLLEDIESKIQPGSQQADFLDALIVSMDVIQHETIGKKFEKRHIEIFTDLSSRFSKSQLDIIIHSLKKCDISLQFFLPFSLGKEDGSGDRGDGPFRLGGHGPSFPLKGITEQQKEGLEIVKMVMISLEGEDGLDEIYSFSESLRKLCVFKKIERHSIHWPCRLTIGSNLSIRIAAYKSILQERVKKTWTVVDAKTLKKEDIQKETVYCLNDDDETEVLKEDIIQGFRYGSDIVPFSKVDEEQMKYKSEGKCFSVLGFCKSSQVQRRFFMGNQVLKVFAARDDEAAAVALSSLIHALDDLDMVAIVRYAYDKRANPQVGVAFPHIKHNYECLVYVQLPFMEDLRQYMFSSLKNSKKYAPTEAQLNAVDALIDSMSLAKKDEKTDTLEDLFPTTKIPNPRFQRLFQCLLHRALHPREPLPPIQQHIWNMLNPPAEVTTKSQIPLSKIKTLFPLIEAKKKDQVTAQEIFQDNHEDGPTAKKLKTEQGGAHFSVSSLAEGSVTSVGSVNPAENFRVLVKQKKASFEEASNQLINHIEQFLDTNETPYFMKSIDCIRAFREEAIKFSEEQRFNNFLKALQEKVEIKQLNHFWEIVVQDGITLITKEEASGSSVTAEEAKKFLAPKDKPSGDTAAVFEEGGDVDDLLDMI

stoichiometry N [1]: 1 | stoichiometry N [2]: 1
Substance: aprataxin and polynucleotide kinase/phosphatase-like factor (APLF), GST tag removed (from UniProt Q8IW19 1-511) (natural protein)
